Results published in the supplement of paper PMC9112550, “Optimization of the antimicrobial peptide Bac7 by deep mutational scanning” (BMC Biology, 2022).

Test system: Escherichia coli TOP10
Assay: shrunken log2 fold change of peptide-encoding DNA abundance (4.5 h post-induction vs induction); higher = less antimicrobial activity (less host growth inhibition)
Settings: time post-induction: 4.5 h; library: site-saturation at positions 5, 18, 19, 20
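Note: peptides expressed intracellularly from a pBAD plasmid library in pooled LB shake-flask culture, induced with 0.3% L-arabinose, DNA abundance read by NGS, three biological replicates, DESeq2 with apeglm shrinkage.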

Row | Sequence | shrunken log2 fold change
1 | RRIRKRPPRLPRPRPRPVESPRP | 0.0629
2 | RRIRWRPPRLPRPRPRPYPVPRP | 3.67
3 | RRIRMRPPRLPRPRPRPKLTPRP | 1.14
4 | RRIRYRPPRLPRPRPRPNSQPRP | -0.85
5 | RRIRSRPPRLPRPRPRPFCSPRP | -0.212
6 | RRIRERPPRLPRPRPRPHLGPRP | -0.0405
7 | RRIRARPPRLPRPRPRPWMHPRP | 0.026
8 | RRIRKRPPRLPRPRPRPPGSPRP | 0.618
9 | RRIRCRPPRLPRPRPRPELFPRP | 0.676
10 | RRIRMRPPRLPRPRPRPNKRPRP | 0.261
11 | RRIRPRPPRLPRPRPRPNGNPRP | -0.144
12 | RRIRYRPPRLPRPRPRPHEEPRP | -0.018
13 | RRIRSRPPRLPRPRPRPAGTPRP | 1.67
14 | RRIRTRPPRLPRPRPRPSMGPRP | -0.22
15 | RRIRCRPPRLPRPRPRPCAEPRP | 0.0802
16 | RRIRHRPPRLPRPRPRPTHKPRP | 0.0457
17 | RRIRGRPPRLPRPRPRPLFYPRP | 0.257
18 | RRIRDRPPRLPRPRPRPCPAPRP | -0.156
19 | RRIRRRPPRLPRPRPRPPFNPRP | 0.333
20 | RRIRPRPPRLPRPRPRPWPIPRP | 0.054
21 | RRIRTRPPRLPRPRPRPQGVPRP | -0.0062
22 | RRIRCRPPRLPRPRPRPLAEPRP | 0.242
23 | RRIRDRPPRLPRPRPRPMMQPRP | 0.0408
24 | RRIRCRPPRLPRPRPRPFEVPRP | -0.152
25 | RRIRRRPPRLPRPRPRPFHAPRP | 0.201

Row | Sequence | shrunken log2 fold change
26 | RRIRRRPPRLPRPRPRPHHAPRP | -0.0424
27 | RRIRVRPPRLPRPRPRPGSRPRP | 0.177
28 | RRIRVRPPRLPRPRPRPVNWPRP | 0.27
29 | RRIRFRPPRLPRPRPRPSQSPRP | -0.0504
30 | RRIRSRPPRLPRPRPRPDNAPRP | -0.201
31 | RRIRDRPPRLPRPRPRPIQAPRP | 0.119
32 | RRIRVRPPRLPRPRPRPFAFPRP | -0.38
33 | RRIRSRPPRLPRPRPRPKILPRP | -0.112
34 | RRIRMRPPRLPRPRPRPWSCPRP | -0.0965
35 | RRIRRRPPRLPRPRPRPHPGPRP | 0.316
36 | RRIRGRPPRLPRPRPRPKVTPRP | 0.29
37 | RRIRHRPPRLPRPRPRPTMEPRP | -0.0987
38 | RRIRRRPPRLPRPRPRPWGHPRP | -0.165
39 | RRIRQRPPRLPRPRPRPHFCPRP | 0.0177
40 | RRIRWRPPRLPRPRPRPNSFPRP | -0.0131
41 | RRIRNRPPRLPRPRPRPLVTPRP | 0.0322
42 | RRIRYRPPRLPRPRPRPDCRPRP | -0.363
43 | RRIRSRPPRLPRPRPRPKHNPRP | -0.286
44 | RRIRRRPPRLPRPRPRPVDQPRP | 0.348
45 | RRIRRRPPRLPRPRPRPWYEPRP | -0.16
46 | RRIRLRPPRLPRPRPRPSAGPRP | -0.0364
47 | RRIRCRPPRLPRPRPRPLQQPRP | 0.178
48 | RRIRIRPPRLPRPRPRPEYFPRP | -0.0312
49 | RRIRGRPPRLPRPRPRPIWDPRP | 0.474
50 | RRIRWRPPRLPRPRPRPVQPPRP | 0.0708

Row | Sequence | shrunken log2 fold change
51 | RRIRLRPPRLPRPRPRPWDRPRP | -0.0145
52 | RRIRQRPPRLPRPRPRPRVIPRP | 0.113
53 | RRIRPRPPRLPRPRPRPVFCPRP | -0.113
54 | RRIRARPPRLPRPRPRPKLEPRP | 0.623
55 | RRIRVRPPRLPRPRPRPFDYPRP | -0.221
56 | RRIRVRPPRLPRPRPRPSSVPRP | -0.529
57 | RRIRQRPPRLPRPRPRPKRRPRP | 0.0204
58 | RRIRLRPPRLPRPRPRPCQKPRP | -0.17
59 | RRIRARPPRLPRPRPRPLIFPRP | 0.000397
60 | RRIRFRPPRLPRPRPRPECEPRP | 0.639
61 | RRIRARPPRLPRPRPRPIHEPRP | -0.0242
62 | RRIRSRPPRLPRPRPRPYTNPRP | -1.46
63 | RRIRKRPPRLPRPRPRPQIVPRP | 0.119
64 | RRIRKRPPRLPRPRPRPFEFPRP | 0.0169
65 | RRIRERPPRLPRPRPRPWSLPRP | -0.0112
66 | RRIRYRPPRLPRPRPRPQIWPRP | -0.662
67 | RRIRFRPPRLPRPRPRPGDAPRP | 0.158
68 | RRIRKRPPRLPRPRPRPANVPRP | -0.196
69 | RRIRGRPPRLPRPRPRPHWFPRP | 0.156
70 | RRIRFRPPRLPRPRPRPHYKPRP | -0.408
71 | RRIRCRPPRLPRPRPRPHKPPRP | 0.0762
72 | RRIRIRPPRLPRPRPRPFWGPRP | -0.139
73 | RRIRIRPPRLPRPRPRPSYGPRP | -0.53
74 | RRIRNRPPRLPRPRPRPQATPRP | 0.991
75 | RRIRTRPPRLPRPRPRPNIPPRP | -0.593

Row | Sequence | shrunken log2 fold change
76 | RRIRDRPPRLPRPRPRPCTPPRP | -0.153
77 | RRIRARPPRLPRPRPRPFQIPRP | -0.0627
78 | RRIRLRPPRLPRPRPRPKNSPRP | -0.27
79 | RRIRLRPPRLPRPRPRPMSRPRP | -0.00152
80 | RRIRLRPPRLPRPRPRPVWRPRP | 0.299
81 | RRIRNRPPRLPRPRPRPCTNPRP | 0.00408
82 | RRIRIRPPRLPRPRPRPPYLPRP | -0.612
83 | RRIRRRPPRLPRPRPRPLFLPRP | -0.173
84 | RRIRHRPPRLPRPRPRPAKRPRP | -0.132
85 | RRIRIRPPRLPRPRPRPGITPRP | -0.182
86 | RRIRVRPPRLPRPRPRPMMQPRP | 0.0134
87 | RRIRWRPPRLPRPRPRPMVQPRP | 0.121
88 | RRIRKRPPRLPRPRPRPAIQPRP | 0.396
89 | RRIRHRPPRLPRPRPRPRHYPRP | -0.285
90 | RRIRNRPPRLPRPRPRPHAYPRP | 0.00658
91 | RRIRCRPPRLPRPRPRPQRCPRP | -0.0802
92 | RRIRVRPPRLPRPRPRPNQVPRP | -0.185
93 | RRIRWRPPRLPRPRPRPIMWPRP | 0.181
94 | RRIRLRPPRLPRPRPRPIEPPRP | 0.144
95 | RRIRARPPRLPRPRPRPDCQPRP | 0.55
96 | RRIRERPPRLPRPRPRPHNRPRP | -0.0587
97 | RRIRRRPPRLPRPRPRPMWYPRP | 0.0371
98 | RRIRCRPPRLPRPRPRPNAQPRP | 0.164
99 | RRIRERPPRLPRPRPRPYVDPRP | -0.0122
100 | RRIRHRPPRLPRPRPRPFSLPRP | -0.277

Row | Sequence | shrunken log2 fold change
101 | RRIRDRPPRLPRPRPRPQQQPRP | -0.114
102 | RRIRNRPPRLPRPRPRPYWSPRP | -0.195
103 | RRIRKRPPRLPRPRPRPISTPRP | -0.218
104 | RRIRNRPPRLPRPRPRPENDPRP | 0.0164
105 | RRIRMRPPRLPRPRPRPVYKPRP | -0.014
106 | RRIRARPPRLPRPRPRPEMSPRP | 0.116
107 | RRIRYRPPRLPRPRPRPTPTPRP | 0.451
108 | RRIRERPPRLPRPRPRPFNYPRP | -0.273
109 | RRIRYRPPRLPRPRPRPSQCPRP | -0.115
110 | RRIRYRPPRLPRPRPRPCAGPRP | -0.0602
111 | RRIRFRPPRLPRPRPRPHMWPRP | -0.951
112 | RRIRERPPRLPRPRPRPIDDPRP | 0.0583
113 | RRIRGRPPRLPRPRPRPIYYPRP | -0.197
114 | RRIRQRPPRLPRPRPRPLFYPRP | -0.251
115 | RRIRPRPPRLPRPRPRPGNLPRP | -0.376
116 | RRIRARPPRLPRPRPRPEPFPRP | 0.0204
117 | RRIRRRPPRLPRPRPRPWMRPRP | 0.172
118 | RRIRNRPPRLPRPRPRPGDGPRP | 0.292
119 | RRIRVRPPRLPRPRPRPMKLPRP | -0.0169
120 | RRIRCRPPRLPRPRPRPIICPRP | -0.442
121 | RRIRARPPRLPRPRPRPEQFPRP | 0.218
122 | RRIRERPPRLPRPRPRPNKKPRP | -0.187
123 | RRIRERPPRLPRPRPRPSFLPRP | -0.789
124 | RRIRSRPPRLPRPRPRPMVDPRP | 0.197
125 | RRIRQRPPRLPRPRPRPAKMPRP | -0.207

Row | Sequence | shrunken log2 fold change
126 | RRIRFRPPRLPRPRPRPQGPPRP | 0.0563
127 | RRIRVRPPRLPRPRPRPQQTPRP | 0.0227
128 | RRIRARPPRLPRPRPRPNTCPRP | 0.136
129 | RRIRPRPPRLPRPRPRPHRHPRP | -0.47
130 | RRIRSRPPRLPRPRPRPGGNPRP | 0.163
131 | RRIRYRPPRLPRPRPRPNAIPRP | -0.0737
132 | RRIRQRPPRLPRPRPRPKDEPRP | 0.0571
133 | RRIRSRPPRLPRPRPRPGDGPRP | 0.78
134 | RRIRSRPPRLPRPRPRPRVNPRP | -0.189
135 | RRIRRRPPRLPRPRPRPTHNPRP | 0.695
136 | RRIRSRPPRLPRPRPRPQAGPRP | 0.165
137 | RRIRRRPPRLPRPRPRPRRKPRP | 0.43
138 | RRIRPRPPRLPRPRPRPAGIPRP | -0.0533
139 | RRIRIRPPRLPRPRPRPHEPPRP | -0.129
140 | RRIRQRPPRLPRPRPRPCPLPRP | -0.0641
141 | RRIRFRPPRLPRPRPRPLVIPRP | -0.78
142 | RRIRHRPPRLPRPRPRPSNRPRP | -0.771
143 | RRIRFRPPRLPRPRPRPTVAPRP | 0.226
144 | RRIRSRPPRLPRPRPRPNFWPRP | 0.0869
145 | RRIRFRPPRLPRPRPRPCIEPRP | -0.422
146 | RRIRDRPPRLPRPRPRPEQNPRP | 0.517
147 | RRIRIRPPRLPRPRPRPPAKPRP | 0.309
148 | RRIRYRPPRLPRPRPRPAYSPRP | -0.267
149 | RRIRIRPPRLPRPRPRPTWGPRP | 0.0223
150 | RRIRYRPPRLPRPRPRPPICPRP | -0.801
